The results in this text go back to article PMC7010359, “High-resolution crystal structures of Escherichia coli FtsZ bound to GDP and GTP” (Acta Crystallographica. Section F, Structural Biology …, 2020).

The series deals with the molecule itself. Description: crystal structure; hanging-drop vapor diffusion, 298 K, protein at 37 mg/ml with 1 mM GDP (1.35 Å) or 30 mg/ml with 1 mM GTP (1.40 Å); space group P2(1), one molecule in the asymmetric unit; filament generated by crystal packing.

B1: E. coli FtsZ(L178E), truncated to the globular domain (residues 10-316) (domain or fragment, E. coli K-12, UniProt P0A9A6 10-316, looked up)
chain: DAVIKVIGVGGGGGNAVEHMVRERIEGVEFFAVNTDAQALRKTAVGQTIQIGSGITKGLGAGANPEVGRNAADEDRDALRAALEGADMVFIAAGMGGGTGTGAAPVVAEVAKDLGILTVAVVTKPFNFEGKKRMAFAEQGITELSKHVDSLITIPNDKLLKVLGRGISELDAFGAANDVLKGAVQGIAELITRPGLMNVDFADVRTVMSEMGYAMMGSGVASGEDRAEEAAEMAISSPLLEDIDLSGARGVLVNITAGFDLRLDEFETVGNTIRAFASDNATVVIGTSLDPDMNDELRVTVVATGIG
notes: FtsZ, E. coli K-12, globular domain, residues 10-316, with the mutation L178E; expressed from pET-11; Crystallized with 1 mM GDP (PDB 6umk) or 1 mM GTP (PDB 6unx); No tag is mentioned; One molecule in the asymmetric unit; the protofilament arises from crystal packing; also called EcFtsZ(L178E); source: E. coli BL21(DE3), purified (ammonium sulfate precipitation, Resource Q anion exchange)
Consider B1, for which the binding result is reported as “binds”.
